Results reported in US20220242962A1 (APTEVO RESEARCH AND DEVELOPMENT, published 2022).

T1: Full-length Human OX40 (human, UniProt P43489 29-277)
T1 construct: also called OXF001; human OX40/CHO
T1 sequence: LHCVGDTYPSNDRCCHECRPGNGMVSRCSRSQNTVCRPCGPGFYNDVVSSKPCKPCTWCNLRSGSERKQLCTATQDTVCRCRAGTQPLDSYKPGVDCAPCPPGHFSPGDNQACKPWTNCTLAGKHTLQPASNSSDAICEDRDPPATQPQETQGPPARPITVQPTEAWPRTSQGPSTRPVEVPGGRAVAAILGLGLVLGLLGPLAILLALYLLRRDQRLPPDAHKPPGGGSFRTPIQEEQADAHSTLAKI

T2: Full-length Cyno 4-1BB (cynomolgus monkey, UniProt Q07011 24-255 (human entry))
T2 construct: on Jurkat or CHO cells; also called FOB006; cynomolgus 4-1BB
T2 chain: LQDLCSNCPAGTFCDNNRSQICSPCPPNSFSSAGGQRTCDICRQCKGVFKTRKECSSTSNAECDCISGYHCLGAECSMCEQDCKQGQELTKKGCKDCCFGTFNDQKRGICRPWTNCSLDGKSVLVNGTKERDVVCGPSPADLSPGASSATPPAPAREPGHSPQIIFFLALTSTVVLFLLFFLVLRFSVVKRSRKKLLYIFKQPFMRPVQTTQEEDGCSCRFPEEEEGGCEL

T3: Fc gamma receptor RIIB/C (human, UniProt P31994 46-217)
T3 construct: soluble SPR analyte
T3 sequence (looked up): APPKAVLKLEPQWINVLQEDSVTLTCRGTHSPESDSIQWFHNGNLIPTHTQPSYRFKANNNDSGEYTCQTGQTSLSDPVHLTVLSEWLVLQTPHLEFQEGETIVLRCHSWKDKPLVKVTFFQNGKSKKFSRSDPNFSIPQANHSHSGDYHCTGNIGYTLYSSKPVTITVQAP

T4: Fc gamma receptor RIIA R167 (human, UniProt P12318 36-218)
T4 construct: soluble SPR analyte
T4 sequence (looked up): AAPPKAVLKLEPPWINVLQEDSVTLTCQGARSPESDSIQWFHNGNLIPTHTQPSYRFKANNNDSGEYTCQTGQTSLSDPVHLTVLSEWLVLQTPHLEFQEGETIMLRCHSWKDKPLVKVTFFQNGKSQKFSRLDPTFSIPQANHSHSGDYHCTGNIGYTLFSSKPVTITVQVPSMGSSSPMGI

T5: Fc gamma receptor RIIA H167 (human, UniProt P12318 36-218)
T5 construct: soluble SPR analyte
T5 sequence (looked up): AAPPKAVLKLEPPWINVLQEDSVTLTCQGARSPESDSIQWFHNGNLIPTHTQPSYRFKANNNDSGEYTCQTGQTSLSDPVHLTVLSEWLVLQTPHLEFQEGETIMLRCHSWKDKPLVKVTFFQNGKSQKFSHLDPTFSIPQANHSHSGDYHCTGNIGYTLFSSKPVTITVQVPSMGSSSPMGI

T6: Full-length Cyno OX40 (cynomolgus monkey, UniProt P43489 29-277 (human entry))
T6 construct: on CHO-K1SV cells; also called OXF004; cynomolgus OX40
T6 chain: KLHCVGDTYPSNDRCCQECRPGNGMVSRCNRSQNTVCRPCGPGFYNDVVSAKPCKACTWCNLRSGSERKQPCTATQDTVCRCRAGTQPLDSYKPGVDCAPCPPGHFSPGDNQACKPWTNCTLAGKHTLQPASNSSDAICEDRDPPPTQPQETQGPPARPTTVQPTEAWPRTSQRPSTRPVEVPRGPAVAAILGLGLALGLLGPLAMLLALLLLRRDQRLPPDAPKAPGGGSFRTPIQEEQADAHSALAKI


Experiments:
Full-length Human OX40 [1] = target: T1, Full-length Human OX40; assay: flow cytometry, CHO cells expressing human OX40
Protocol: (§1) FIGS. 12A-12D show the binding of anti-4-1BB x anti-OX40 constructs, with additional humanization in 4-1BB and altered orientations of binding domains, human (12A) or cynomolgus (12C) 4-1BB-expressing Jurkat cells or human (12B) or cynomolgus (12D) OX40-expressing CHOK1SV cells. Serial dilutions of ADAPTIR™ constructs were incubated with transfected cells and subsequently labelled with a fluorescently-conjugated goat-a-human Fc secondary antibody. […] (See Example 19.)
(§2) Binding studies were performed using the flow cytometry-based staining procedures described above.

Full-length Cyno 4-1BB = target: T2, Full-length Cyno 4-1BB; assay: flow cytometry on Jurkat cells transfected with cynomolgus 4-1BB, goat anti-human Fc secondary antibody, MFI (Mean)
Protocol: as §1, §2

Full-length Human 4-1BB [2] = target: T7, Full-length Human 4-1BB (human, UniProt Q07011 24-255); assay: cell-based or functional assay
Target sequence in this assay (Q07011 24-255): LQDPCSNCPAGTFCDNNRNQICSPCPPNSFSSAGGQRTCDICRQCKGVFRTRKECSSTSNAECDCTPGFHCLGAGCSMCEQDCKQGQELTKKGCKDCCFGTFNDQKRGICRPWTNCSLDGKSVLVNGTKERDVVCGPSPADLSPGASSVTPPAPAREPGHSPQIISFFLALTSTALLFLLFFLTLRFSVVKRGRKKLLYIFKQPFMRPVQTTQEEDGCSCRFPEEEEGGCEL

Full-length Human OX40 [3] = target: T1, Full-length Human OX40; assay: cell-based or functional assay
Fc gamma receptor RIIB/C = target: T3, Fc gamma receptor RIIB/C; assay: SPR, construct immobilized, receptor injected at 2 uM
Protocol: (§3) Fcγ receptor binding to bispecific proteins was measured by Surface Plasmon Resonance on a Biacore 8K instrument at room temperature. Bispecific proteins with modified Fc regions to reduce binding to Fcγ receptors were directly immobilized on the surface of a CM5 sensor chip to a surface density of 4000 RU. A bispecific ADAPTIR™ protein with a wild type Fc was similarly immobilized to the surface as a positive control and used as a comparator to evaluate the reduction in binding resulting from changes incorporated into the Fc region amino acid sequence. Fcγ receptors (purchased from R&D Systems) were diluted to either 100 nM (FcγRI) or 2 μM (all other Fcγ receptors) in HBS-EP+ buffer before injecting over the surface of the prepared sensor chip at 30 μL/min for 60 seconds. Maximum RU values during association phase of each injection were used to compare the extent of binding of the modified Fc to wild type value and are reported in Table 17 below.

[4] = target: T4, Fc gamma receptor RIIA R167; assay: as above
Protocol: as §3

[5] = target: T5, Fc gamma receptor RIIA H167; assay: as above
Protocol: as §3

Full-length Cyno OX40 = target: T6, Full-length Cyno OX40; assay: flow cytometry on CHOK1SV cells transfected with cynomolgus OX40, goat anti-human Fc secondary antibody, MFI (Mean)
Protocol: as §1, §2

Full-length Human 4-1BB [6] = target: T7, Full-length Human 4-1BB; assay: flow cytometry, Jurkat cells expressing human 4-1BB
Protocol: as §1, §2
Throughout, for 4-1BB Reporter Assay Max induction: unit not given here.
Throughout, for OX40 Reporter Assay Max induction: unit not given here.

| EC50 (Full-length Human OX40 [1]) [nM] | max MFI (Full-length Human OX40 [1]) [MFI] | EC50 (read off the curve) (Full-length Cyno 4-1BB) [nM] | 4-1BB Reporter Assay EC50 (Full-length Human 4-1BB [2]) [nM] | 4-1BB Reporter Assay Max induction (Full-length Human 4-1BB [2]) | OX40 Reporter Assay EC50 (Full-length Human OX40 [3]) [nM] | OX40 Reporter Assay Max induction (Full-length Human OX40 [3]) | Max RU value during association (Fc gamma receptor RIIB/C) [RU] | Max RU value during association [4] [RU] | Max RU value during association [5] [RU] | EC50 (read off the curve) (Full-length Cyno OX40) [nM] | EC50 (Full-length Human 4-1BB [6]) [nM] | max MFI (Full-length Human 4-1BB [6]) [MFI] | Binder |
| --- | --- | --- | --- | --- | --- | --- | --- | --- | --- | --- | --- | --- | --- |
| 0.29 | 10400 | ~0.3 | 0.018 | 5.5e+06 | 0.012 | 1.99e+06 | 21 | 92 | 14 | ~1 | 0.23 | 4710 | FXX01066 (bispecific antibody, ADAPTIR scFv-Fc-scFv, anti-4-1BB (VH-VL) N-terminal, anti-OX40 C-terminal, PAA (del) Fc; also called FX01066) EVQLVQSGAEVKKPGASVKVSCKASGYTFTSYWMNWVRQAPGQGLEWMGNIYPSGGSTNYAQKFQGRVTMTVDTSTSTVYMELSSLRSEDTAVYYCASFSDGYYAYAMDYWGQGTLVTVSSGGGGSGGGGSGGGGSGGGGSEIVMTQSPATLSLSPGERATLSCRASQSVSSYLNWYQQKPGQAPRLLIYYASRRHTGIPARFSGSGSGTDFTLTISSLQPEDFAVYYCQQGYNLPYTFGQGTKVEIKEPKSSDKTHTCPPCPAPPAAAPSVFLFPPKPKDTLMISRTPEVTCVVVDVSHEDPEVKFNWYVDGVEVHNAKTKPREEQYNSTYRVVSVLTVLHQDWLNGKEYKCAVSNKALPAPIEKTISKAKGQPREPQVYTLPPSRDELTKNQVSLTCLVKGFYPSDIAVEWESNGQPENNYKTTPPVLDSDGSFFLYSKLTVDKSRWQQGNVFSCSVMHEALHNHYTQKSLSLSPGGGGSPSSYVLTQPPSVSVAPGQTARITCGGNNIGSKSVNWFQQKPGQAPVLVVYDDSGRPSGIPERFSGSTSGNTATLTISRVEAGDEADYYCQVWDSSSDHVVFGGGTKLTVLGGGGSGGGGSGGGGSGGGGSQVQLVESGGGVVQPGRSLRLSCAASGFTLSYYGMHWVRQAPGKGLEWVAAISHDGSDKYYADSVKGRFTISRDNSKNTLYLQMNSLRAEDTAVYYCSNDQFDPWGQGTLVTVSSR |
| – | – | – | – | – | – | – | 22 | 103 | 14 | – | – | – | FXX01119 (bispecific antibody, ADAPTIR anti-4-1BB x anti-OX40, pI variant; PAA (del) Fc) EVQLVQSGAEVKKPGASVKVSCKASGYTFTSYWMNWVRQAPGQGLEWMGNIYPSGGSTNYAQKFQGRVTMTVDTSTSTVYMELSSLRSEDTAVYYCASFSDGYYAYAMDYWGQGTLVTVSSGGGGSGGGGSGGGGSGGGGSEIVMTQSPATLSLSPGERATLSCRASQSVSSYLNWYQQKPGQAPRLLIYYASRRHTGIPARFSGSGSGTDFTLTISSLQPEDFAVYYCQQGYNLPYTFGQGTKVEIKEPKSSDKTHTCPPCPAPPAAAPSVFLFPPKPKDTLMISRTPEVTCVVVDVSHEDPEVKFNWYVDGVEVHNAKTKPREEQYNSTYRVVSVLTVLHQDWLNGKEYKCAVSNKALPAPIEKTISKAKGQPREPQVYTLPPSRDELTKNQVSLTCLVKGFYPSDIAVEWESNGQPENNYKTTPPVLDSDGSFFLYSKLTVDKSRWQQGNVFSCSVMHEALHNHYTQKSLSLSPGGGGSPSSYVLTQPPSVSVAPGKTARITCGGNNIGSKSVNWFQQKPGQAPVLVVYDDSGRPSGVPNRFSGSTSGNTATLTISRVEAGDEADYYCQVWDSSSDHVVFGGGTKLTVLGGGGSGGGGSGGGGSGGGGSQVQLVESGGGVVQPGRSLRLSCAASGFTLSYYGMHWVRQAPGKGLEWVAAISHDGSDKYYADSVKGRFTISRDNSKNRLYLQMNSLRAEDTAVYYCSNDQFDPWGQGTLVTVSSR |
| – | – | – | – | – | – | – | 20 | 86 | 13 | – | – | – | FXX01111 (bispecific antibody, ADAPTIR anti-4-1BB x anti-OX40, pI variant; PAA (del) Fc) EVQLVQSGAEVKKPGASVKVSCKASGYTFTSYWMNWVRQAPGQGLEWMGNIYPSGGSTNYAQKFQGRVTMTVDTSTSTVYMELSSLRSEDTAVYYCASFSDGYYAYAMDYWGQGTLVTVSSGGGGSGGGGSGGGGSGGGGSEIVMTQSPATLSLSPGERATLSCRASQSVSSYLNWYQQKPGQAPRLLIYYASRRHTGIPARFSGSGSGTDFTLTISSLQPEDFAVYYCQQGYNLPYTFGQGTKVEIKEPKSSDKTHTCPPCPAPPAAAPSVFLFPPKPKDTLMISRTPEVTCVVVDVSHEDPEVKFNWYVDGVEVHNAKTKPREEQYNSTYRVVSVLTVLHQDWLNGKEYKCAVSNKALPAPIEKTISKAKGQPREPQVYTLPPSRDELTKNQVSLTCLVKGFYPSDIAVEWESNGQPENNYKTTPPVLDSDGSFFLYSKLTVDKSRWQQGNVFSCSVMHEALHNHYTQKSLSLSPGGGGSPSSYVLTQPPSVSVAPGQTARITCGGNNIGSKSVNWFQQKPGQAPVLVVYDDSGRPSGVPNRFSGSTSGNTATLTISRVEAGDEADYYCQVWDSSSDHVVFGGGTKLTVLGGGGSGGGGSGGGGSGGGGSQVQLVESGGGVVQPGRSLRLSCAASGFTLSYYGMHWVRQAPGKGLEWVAAISHDGSDKYYADSVKGRFTISRDNSKNTLYLQMNSLRAEDTAVYYCSNDQFDPWGQGTLVTVSSR |
| – | – | – | – | – | – | – | 19 | 89 | 12 | – | – | – | FXX01115 (bispecific antibody, ADAPTIR anti-4-1BB x anti-OX40, pI variant; PAA (del) Fc) EVQLVQSGAEVKKPGASVKVSCKASGYTFTSYWMNWVRQAPGQGLEWMGNIYPSGGSTNYAQKFQGRVTMTVDTSTSTVYMELSSLRSEDTAVYYCASFSDGYYAYAMDYWGQGTLVTVSSGGGGSGGGGSGGGGSGGGGSEIVMTQSPATLSLSPGERATLSCRASQSVSSYLNWYQQKPGQAPRLLIYYASRRHTGIPARFSGSGSGTDFTLTISSLQPEDFAVYYCQQGYNLPYTFGQGTKVEIKEPKSSDKTHTCPPCPAPPAAAPSVFLFPPKPKDTLMISRTPEVTCVVVDVSHEDPEVKFNWYVDGVEVHNAKTKPREEQYNSTYRVVSVLTVLHQDWLNGKEYKCAVSNKALPAPIEKTISKAKGQPREPQVYTLPPSRDELTKNQVSLTCLVKGFYPSDIAVEWESNGQPENNYKTTPPVLDSDGSFFLYSKLTVDKSRWQQGNVFSCSVMHEALHNHYTQKSLSLSPGGGGSPSSYVLTQPPSVSVAPGQTARITCGGNNIGSKSVNWFQQKPGQAPVLVVYDDSGRPSGVPNRFSGSTSGNTATLTISRVEAGDEADYYCQVWDSSSDHVVFGGGTKLTVLGGGGSGGGGSGGGGSGGGGSQVQLVESGGGVVQPGRSLRLSCAASGFTLSYYGMHWVRQAPGKGLEWVAAISHDGSDKYYADSVKGRFTISRDNSKNRLYLQMNSLRAEDTAVYYCSNDQFDPWGQGTLVTVSSR |
